Experimental data as given in publication PMC5045189 (2016).

Target: T1, Staphylococcus aureus manganese transporter protein MntC, wild type, recombinant (Staphylococcus aureus, UniProt W8TNQ9 1-309)
T1 chain: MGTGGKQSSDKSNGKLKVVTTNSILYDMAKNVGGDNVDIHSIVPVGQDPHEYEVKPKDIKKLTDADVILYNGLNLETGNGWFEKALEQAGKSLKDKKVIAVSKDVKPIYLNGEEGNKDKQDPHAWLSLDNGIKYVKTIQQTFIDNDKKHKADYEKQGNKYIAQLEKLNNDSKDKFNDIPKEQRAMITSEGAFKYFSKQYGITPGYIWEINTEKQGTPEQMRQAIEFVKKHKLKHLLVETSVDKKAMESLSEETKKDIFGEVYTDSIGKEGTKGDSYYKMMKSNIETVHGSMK
Experiment: ELISA

B1: monoclonal antibody mAB 305-78-7 (intact antibody, interference group 2) (antibody, V domains shown)
VH: QVQLQQSGAELARPGASVKMSCKASGYTFTRYTMHWVQQRPGQGLEWIGYINPSSDYTKYNQKFKDKATMTADKSSSTAYMQLSSLTSEDSAVYYCARKEDVGYWYFDFWGTGTTVTVSS
VL: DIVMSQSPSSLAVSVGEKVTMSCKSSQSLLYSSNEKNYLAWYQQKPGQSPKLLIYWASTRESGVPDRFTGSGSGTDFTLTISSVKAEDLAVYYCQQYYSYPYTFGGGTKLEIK
Kd: 1.3 nM
